Laboratory results: patent publication US20090166224A1

Key:
[1] = biological target: ALPHA-2-HS-GLYCOPROTEIN (human) (UniProt P02765); assay: human serum on Con A/WGA/Jacalin column, lectin-specific displacer fraction, LC-MS/MS; grade = SEQUEST rank group (+ = ranks 1-5, ++++ = 16-20)
… ZONE PROTEIN (human) [2] = biological target: … ZONE PROTEIN (human) (UniProt P20742); assay: as above
[3] = biological target: Pregnancy zone protein in fucosidase-treated serum (human) (UniProt P20742); assay: fucosidase-treated serum on M-LAC column, displacer fraction, extracted ion chromatogram of peptide … (so in the source)
[4] = biological target: Haptoglobin in neuraminidase-treated serum (human) (UniProt P00738); assay: neuraminidase-treated serum on M-LAC column, displacer fraction, LC-MS/MS; smaller rank = more abundant
[5] = biological target: Alpha-1-acid-glycoprotein in neuraminidase-treated serum (human) (UniProt P02763); assay: as above
[6] = biological target: APOLIPOPROTEIN A-I (human) (UniProt P02647); assay: human serum on M-LAC column, displacer fraction, extracted ion chromatogram of peptide …
CERULOPLASMIN (human) [7] = biological target: CERULOPLASMIN (human) (UniProt P00450); assay: as above
[8] = biological target: Pregnancy zone protein in fucosidase-treated serum (human) (UniProt P20742); assay: fucosidase-treated serum on M-LAC column, displacer fraction, LC-MS/MS; smaller rank = more abundant
SERO… (human) [9] = biological target: SERO… (human) (UniProt P02787); assay: human serum on M-LAC column, displacer fraction, LC-MS/MS; smaller rank = more abundant
[10] = biological target: ALPHA-2-HS-GLYCOPROTEIN (human) (UniProt P02765); assay: as above
… ZONE PROTEIN (human) [11] = biological target: … ZONE PROTEIN (human) (UniProt P20742); assay: as above
[12] = biological target: APOLIPOPROTEIN A-I (human) (UniProt P02647); assay: human serum on Con A/WGA/Jacalin column, lectin-specific displacer fraction, LC-MS/MS; grade = SEQUEST rank group (+ = ranks 1-5, ++++ = 16-20)
SERO… (human) [13] = biological target: SERO… (human) (UniProt P02787); assay: as above
CERULOPLASMIN (human) [14] = biological target: CERULOPLASMIN (human) (UniProt P00450); assay: as above
[15] = biological target: asialotransferrin (human) (UniProt P02787); assay: neuraminidase-treated serum on M-LAC column, displacer fraction, LC-MS/MS; smaller rank = more abundant
[16] = biological target: Alpha-2HS-glycoprotein in neuraminidase-treated serum (human) (UniProt P02765); assay: as above
[17] = biological target: Beta-2-glycoprotein in neuraminidase-treated serum (human) (UniProt P02749); assay: as above
[18] = biological target: Inter-alpha-trypsin inhibitor in fucosidase-treated serum (human); assay: fucosidase-treated serum on M-LAC column, displacer fraction, extracted ion chromatogram of peptide …
HAPTOGLOBIN-2 (human) = HAPTOGLOBIN-2 (human) (UniProt P00738); assay: human serum on M-LAC column, displacer fraction, extracted ion chromatogram of peptide …
[19] = biological target: Inter-alpha-trypsin inhibitor (human); assay: as above
[20] = biological target: Inter-alpha-trypsin inhibitor in fucosidase-treated serum (human); assay: fucosidase-treated serum on M-LAC column, displacer fraction, LC-MS/MS; smaller rank = more abundant
[21] = biological target: Inter-alpha-trypsin inhibitor (human); assay: human serum on M-LAC column, displacer fraction, LC-MS/MS; smaller rank = more abundant
[22] = biological target: IG ALPHA-1 CHAIN C REGION (human) (UniProt P01876); assay: human serum on Con A/WGA/Jacalin column, lectin-specific displacer fraction, LC-MS/MS; grade = SEQUEST rank group (+ = ranks 1-5, ++++ = 16-20)
[23] = biological target: IG ALPHA-1 CHAIN C REGION (human) (UniProt P01876); assay: human serum on M-LAC column, Jacalin displacer fraction, LC-MS/MS; smaller rank = more abundant
[24] = biological target: asialotransferrin (human) (UniProt P02787); assay: neuraminidase-treated serum on M-LAC column, displacer fraction, extracted ion chromatogram of peptide …

Sequence of UniProt P02647 (P02647 25-267 limits assumed): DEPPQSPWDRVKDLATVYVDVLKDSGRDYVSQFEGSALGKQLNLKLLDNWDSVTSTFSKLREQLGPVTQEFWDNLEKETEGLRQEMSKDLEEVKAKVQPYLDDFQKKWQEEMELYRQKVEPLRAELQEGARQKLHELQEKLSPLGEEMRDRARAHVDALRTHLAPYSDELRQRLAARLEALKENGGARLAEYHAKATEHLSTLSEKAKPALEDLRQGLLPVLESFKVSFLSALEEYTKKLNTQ
Sequence of UniProt P00450 (P00450 20-1065 limits assumed): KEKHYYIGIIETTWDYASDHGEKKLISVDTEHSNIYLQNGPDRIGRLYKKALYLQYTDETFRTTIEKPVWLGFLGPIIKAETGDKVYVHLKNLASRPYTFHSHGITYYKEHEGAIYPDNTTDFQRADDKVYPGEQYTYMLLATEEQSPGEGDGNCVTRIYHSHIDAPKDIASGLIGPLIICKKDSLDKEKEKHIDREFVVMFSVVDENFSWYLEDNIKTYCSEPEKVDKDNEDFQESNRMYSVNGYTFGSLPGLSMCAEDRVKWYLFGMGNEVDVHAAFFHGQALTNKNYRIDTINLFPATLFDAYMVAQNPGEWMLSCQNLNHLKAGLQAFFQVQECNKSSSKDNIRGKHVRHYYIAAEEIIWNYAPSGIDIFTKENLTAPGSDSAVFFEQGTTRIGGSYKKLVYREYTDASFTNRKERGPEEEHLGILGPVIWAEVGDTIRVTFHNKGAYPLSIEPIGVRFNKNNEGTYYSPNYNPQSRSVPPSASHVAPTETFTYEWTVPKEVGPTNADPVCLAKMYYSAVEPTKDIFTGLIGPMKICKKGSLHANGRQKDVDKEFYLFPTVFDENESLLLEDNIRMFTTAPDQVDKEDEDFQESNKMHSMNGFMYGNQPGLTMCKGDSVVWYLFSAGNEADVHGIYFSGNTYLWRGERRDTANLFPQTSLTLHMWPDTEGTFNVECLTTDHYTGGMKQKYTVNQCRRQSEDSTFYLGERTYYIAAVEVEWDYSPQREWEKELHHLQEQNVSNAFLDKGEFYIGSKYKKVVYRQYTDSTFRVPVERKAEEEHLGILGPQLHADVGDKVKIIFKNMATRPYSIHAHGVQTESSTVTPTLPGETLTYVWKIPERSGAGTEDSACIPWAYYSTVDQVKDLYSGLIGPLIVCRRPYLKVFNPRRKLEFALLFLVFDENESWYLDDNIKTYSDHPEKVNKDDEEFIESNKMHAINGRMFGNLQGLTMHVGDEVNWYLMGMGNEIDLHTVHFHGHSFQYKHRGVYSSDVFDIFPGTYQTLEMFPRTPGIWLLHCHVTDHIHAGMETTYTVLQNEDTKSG
Sequence of Haptoglobin in neuraminidase-treated serum (human) (P00738 19-406 limits assumed): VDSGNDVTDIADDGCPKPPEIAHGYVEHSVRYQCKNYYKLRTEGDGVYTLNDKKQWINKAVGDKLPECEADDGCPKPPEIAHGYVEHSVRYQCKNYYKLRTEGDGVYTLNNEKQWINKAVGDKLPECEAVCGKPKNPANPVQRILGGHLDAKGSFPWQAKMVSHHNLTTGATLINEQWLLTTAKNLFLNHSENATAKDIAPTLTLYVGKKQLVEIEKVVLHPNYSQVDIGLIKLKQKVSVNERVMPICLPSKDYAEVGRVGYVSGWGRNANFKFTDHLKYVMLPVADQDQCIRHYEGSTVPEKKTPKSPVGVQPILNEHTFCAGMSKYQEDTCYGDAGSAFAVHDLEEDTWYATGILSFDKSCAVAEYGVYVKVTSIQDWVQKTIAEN
Sequence of Alpha-1-acid-glycoprotein in neuraminidase-treated serum (human) (P02763 19-201 limits assumed): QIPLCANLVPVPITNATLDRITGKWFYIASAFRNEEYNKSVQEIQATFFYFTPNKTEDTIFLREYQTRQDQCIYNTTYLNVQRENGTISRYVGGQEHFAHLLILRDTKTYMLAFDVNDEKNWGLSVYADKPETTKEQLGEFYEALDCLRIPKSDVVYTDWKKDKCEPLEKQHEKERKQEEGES
Sequence of … ZONE PROTEIN (human) (P20742 26-1482 limits assumed): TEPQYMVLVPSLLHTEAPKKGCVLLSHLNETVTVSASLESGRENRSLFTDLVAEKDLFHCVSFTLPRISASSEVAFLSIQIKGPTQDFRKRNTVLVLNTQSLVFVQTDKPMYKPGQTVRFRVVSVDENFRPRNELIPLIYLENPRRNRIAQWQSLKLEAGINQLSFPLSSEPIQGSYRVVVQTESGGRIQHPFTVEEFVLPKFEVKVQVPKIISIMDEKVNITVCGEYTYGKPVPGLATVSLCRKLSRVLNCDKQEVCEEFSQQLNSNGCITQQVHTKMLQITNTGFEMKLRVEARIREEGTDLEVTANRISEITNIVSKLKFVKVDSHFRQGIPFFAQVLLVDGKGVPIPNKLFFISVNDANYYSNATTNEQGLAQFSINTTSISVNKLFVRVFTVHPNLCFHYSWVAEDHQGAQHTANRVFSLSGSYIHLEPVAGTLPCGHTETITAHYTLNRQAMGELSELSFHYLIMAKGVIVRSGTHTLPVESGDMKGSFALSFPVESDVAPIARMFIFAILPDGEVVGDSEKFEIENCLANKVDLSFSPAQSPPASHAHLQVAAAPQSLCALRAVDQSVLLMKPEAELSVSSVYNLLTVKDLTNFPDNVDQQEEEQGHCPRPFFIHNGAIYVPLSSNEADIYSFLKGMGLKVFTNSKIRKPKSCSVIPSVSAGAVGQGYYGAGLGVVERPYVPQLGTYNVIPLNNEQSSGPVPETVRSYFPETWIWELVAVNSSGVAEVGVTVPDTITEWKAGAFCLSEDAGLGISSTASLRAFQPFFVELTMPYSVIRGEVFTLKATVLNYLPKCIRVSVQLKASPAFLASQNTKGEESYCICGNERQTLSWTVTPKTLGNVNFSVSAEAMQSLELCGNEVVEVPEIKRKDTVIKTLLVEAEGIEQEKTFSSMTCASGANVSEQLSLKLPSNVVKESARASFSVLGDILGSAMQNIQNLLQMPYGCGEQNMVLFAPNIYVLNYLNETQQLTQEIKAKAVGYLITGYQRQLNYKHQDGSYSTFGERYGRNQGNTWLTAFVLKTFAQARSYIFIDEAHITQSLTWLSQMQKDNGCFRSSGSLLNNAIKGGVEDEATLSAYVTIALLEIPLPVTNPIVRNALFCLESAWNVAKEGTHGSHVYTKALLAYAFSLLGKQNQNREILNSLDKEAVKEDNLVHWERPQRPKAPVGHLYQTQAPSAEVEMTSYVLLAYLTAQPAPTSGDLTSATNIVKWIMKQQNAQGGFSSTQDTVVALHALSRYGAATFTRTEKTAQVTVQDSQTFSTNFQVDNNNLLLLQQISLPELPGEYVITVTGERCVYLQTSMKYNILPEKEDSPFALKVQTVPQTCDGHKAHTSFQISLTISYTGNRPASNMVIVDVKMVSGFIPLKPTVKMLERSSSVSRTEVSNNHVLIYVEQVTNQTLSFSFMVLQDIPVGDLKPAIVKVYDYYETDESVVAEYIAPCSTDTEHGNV
Sequence of Pregnancy zone protein in fucosidase-treated serum (human) (P20742 26-1482 limits assumed): as above
Sequence of SERO… (human) (P02787 20-698 limits assumed): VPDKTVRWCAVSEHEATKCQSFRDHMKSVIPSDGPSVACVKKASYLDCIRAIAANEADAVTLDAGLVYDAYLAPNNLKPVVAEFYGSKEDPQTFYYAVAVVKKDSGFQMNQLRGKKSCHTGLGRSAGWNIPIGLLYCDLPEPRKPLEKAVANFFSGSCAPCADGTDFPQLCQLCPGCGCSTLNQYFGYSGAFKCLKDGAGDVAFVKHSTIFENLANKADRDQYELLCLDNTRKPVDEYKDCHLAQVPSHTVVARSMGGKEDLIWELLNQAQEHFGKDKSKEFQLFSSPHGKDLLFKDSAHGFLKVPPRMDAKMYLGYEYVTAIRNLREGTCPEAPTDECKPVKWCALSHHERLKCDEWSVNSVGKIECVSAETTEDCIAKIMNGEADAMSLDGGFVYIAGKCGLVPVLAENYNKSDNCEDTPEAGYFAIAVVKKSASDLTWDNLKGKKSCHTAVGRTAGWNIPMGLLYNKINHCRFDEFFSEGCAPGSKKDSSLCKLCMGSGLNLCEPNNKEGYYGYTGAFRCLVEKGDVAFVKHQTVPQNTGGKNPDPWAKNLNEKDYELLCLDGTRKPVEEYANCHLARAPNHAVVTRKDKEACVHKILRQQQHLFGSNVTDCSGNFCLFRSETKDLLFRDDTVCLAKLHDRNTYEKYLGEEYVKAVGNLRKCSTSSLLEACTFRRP
Sequence of asialotransferrin (human) (P02787 20-698 limits assumed): as above
Sequence of UniProt P02765 (P02765 19-300 limits assumed, chain 1 of 2): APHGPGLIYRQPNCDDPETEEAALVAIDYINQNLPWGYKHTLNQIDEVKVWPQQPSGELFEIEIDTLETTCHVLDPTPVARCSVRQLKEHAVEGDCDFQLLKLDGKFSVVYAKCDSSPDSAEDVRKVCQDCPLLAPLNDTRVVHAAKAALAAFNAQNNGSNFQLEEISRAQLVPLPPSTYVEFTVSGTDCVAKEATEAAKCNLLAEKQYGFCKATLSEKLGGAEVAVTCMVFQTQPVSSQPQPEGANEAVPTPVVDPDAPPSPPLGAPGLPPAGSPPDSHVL
Sequence of UniProt P02765 (P02765 341-367 limits assumed, chain 2 of 2): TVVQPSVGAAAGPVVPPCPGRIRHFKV
Sequence of IG ALPHA-1 CHAIN C REGION (human) (P01876 other isoform, or with tags, fused parts or gaps limits assumed): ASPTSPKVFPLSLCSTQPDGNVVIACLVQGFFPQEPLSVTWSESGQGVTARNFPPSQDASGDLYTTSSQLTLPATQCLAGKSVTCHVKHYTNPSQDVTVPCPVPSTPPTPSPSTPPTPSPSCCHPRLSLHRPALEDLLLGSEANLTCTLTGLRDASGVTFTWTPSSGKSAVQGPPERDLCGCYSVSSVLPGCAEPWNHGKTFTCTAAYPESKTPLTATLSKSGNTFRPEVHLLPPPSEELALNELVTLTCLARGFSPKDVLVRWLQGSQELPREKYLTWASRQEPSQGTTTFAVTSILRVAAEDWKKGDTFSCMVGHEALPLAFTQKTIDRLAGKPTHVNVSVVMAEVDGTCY
Sequence of Alpha-2HS-glycoprotein in neuraminidase-treated serum (human) (P02765 19-300 limits assumed, chain 1 of 2): as the sequence (P02765 19-300 limits assumed, chain 1 of 2) above
Sequence of HAPTOGLOBIN-2 (human) (P00738 19-406 limits assumed): as the sequence (P00738 19-406 limits assumed) above

Row | SEQUEST rank in displacer fraction [4] | SEQUEST rank in displacer fraction [5] | peptide peak area in displacer fraction [6] | peptide peak area in displacer fraction (CERULOPLASMIN (human) [7]) | SEQUEST rank in displacer fraction (SERO… (human) [9]) | SEQUEST rank in displacer fraction [10] | Substance | peptide peak area in displacer fraction [3] | SEQUEST rank in displacer fraction [8] | SEQUEST rank in displacer fraction (… ZONE PROTEIN (human) [11]) | SEQUEST rank in displacer fraction [15] | SEQUEST rank in displacer fraction [16] | SEQUEST rank in displacer fraction [17] | other results
1 | 2 | 23 | 6e+07 counts | 9.1e+06 counts | 19 | 81 | wheat germ agglutinin (WGA), agarose-bound (from UniProt P10968 27-197) | 5.2e+06 counts | 17 | 7 | – | – | – | SEQUEST ranking (relative abundance in the WGA displacement fraction) [1]: 11 to 15 rank; SEQUEST ranking (relative abundance in the WGA displacement fraction) (… ZONE PROTEIN (human) [2]): 6 to 10 rank
2 | 9 | 27 | 4e+07 counts | 2e+06 counts | 2 | 14 | Jacalin lectin, agarose-bound (from UniProt P18670 1-133; P18671 1-20) | – | – | – | 1 | 7 | 23 | SEQUEST ranking (relative abundance in the Jacalin displacement fraction) (SERO… (human) [13]): 16 to 20 rank; SEQUEST ranking (relative abundance in the Jacalin displacement fraction) [1]: 6 to 10 rank; SEQUEST ranking (relative abundance in the Jacalin displacement fraction) [22]: 1 to 5 rank; SEQUEST rank in displacer fraction [23]: 1; peptide peak area in displacer fraction ([24]; peptide at M/Z 530.2): 2.4e+07 counts; peptide peak area in displacer fraction ([24]; peptide at M/Z 790.1): 8.3e+06 counts

Row | Substance | SEQUEST rank in displacer fraction [4] | SEQUEST rank in displacer fraction [5] | peptide peak area in displacer fraction [6] | peptide peak area in displacer fraction (CERULOPLASMIN (human) [7]) | SEQUEST rank in displacer fraction (SERO… (human) [9]) | SEQUEST rank in displacer fraction [10] | peptide peak area in displacer fraction [3] | SEQUEST rank in displacer fraction [8] | SEQUEST rank in displacer fraction (… ZONE PROTEIN (human) [11]) | SEQUEST rank in displacer fraction [15] | SEQUEST rank in displacer fraction [16] | SEQUEST rank in displacer fraction [17] | other results
3 | Concanavalin A (Con A), agarose-bound (from UniProt P02866 30-281) | 7 | 96 | 1.2e+07 counts | 7.8e+06 counts | 2 | 32 | 1.6e+07 counts | 25 | 34 | 2 | 31 | 24 | SEQUEST ranking (relative abundance in the Con A displacement fraction) [12]: 11 to 15 rank; SEQUEST ranking (relative abundance in the Con A displacement fraction) (SERO… (human) [13]): 1 to 5 rank; SEQUEST ranking (relative abundance in the Con A displacement fraction) (… ZONE PROTEIN (human) [2]): 16 to 20 rank; SEQUEST ranking (relative abundance in the Con A displacement fraction) (CERULOPLASMIN (human) [14]): 16 to 20 rank; peptide peak area in displacer fraction [18]: 0 counts; peptide peak area in displacer fraction (HAPTOGLOBIN-2 (human)): 4e+07 counts; peptide peak area in displacer fraction [19]: 500000 counts; SEQUEST rank in displacer fraction [20]: 13; SEQUEST rank in displacer fraction [21]: 22
